Test results reported in patent publication US20060057619A1.

Biological target: canine Met (canine) (UniProt Q75ZY9)
Assay: cell-based or functional assay

“recombinant human HGF (from UniProt P14210 32-728) (ligand)” was tested, and the phosphorylation of canine Met in OSA cell lines was 50 ng/mL.
